Data: paper PMC4084651 (DNA repair, 2013)
Positions count from the first letter of the chain named. Read-outs that look alike come from different tables or passages of the source. Each block holds one molecule with its values, some of them ahead of it.

Tests used:
[1] = target: T1, SsoRadA (Saccharolobus solfataricus, UniProt Q55075); assay: filter binding, saturation binding curve
T1 sequence (Q55075 1-324): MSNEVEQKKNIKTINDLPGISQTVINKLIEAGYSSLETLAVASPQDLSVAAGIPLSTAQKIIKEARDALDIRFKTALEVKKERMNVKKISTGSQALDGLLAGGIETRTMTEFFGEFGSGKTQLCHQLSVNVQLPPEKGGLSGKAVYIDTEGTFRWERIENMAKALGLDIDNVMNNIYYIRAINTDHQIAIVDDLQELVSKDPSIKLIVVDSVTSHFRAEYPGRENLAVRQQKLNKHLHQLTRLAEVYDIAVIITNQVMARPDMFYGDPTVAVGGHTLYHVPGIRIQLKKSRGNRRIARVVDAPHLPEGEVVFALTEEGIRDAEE

[2] = target: SsoRadA (Saccharolobus solfataricus, UniProt Q55075, K120R); assay: filter binding, saturation binding curve
[3] = target: T2, SsoRadA (Sulfolobus solfataricus, UniProt Q55075 1-324); assay: EMSA
T2 sequence: T1 sequence (Q55075 1-324)

[4] = target: T3, SsoRadA K120A (Sulfolobus solfataricus, UniProt Q55075 1-324, K120A); assay: EMSA
T3 sequence: T1 sequence (Q55075 1-324) with K120A

[5] = target: T2, SsoRadA; assay: EMSA; remark: listed apart in the source
[6] = target: T3, SsoRadA K120A; assay: EMSA; remark: listed apart in the source
[7] = target: T4, SsoRadA K120R (Sulfolobus solfataricus, UniProt Q55075 1-324, K120R); assay: EMSA
T4 sequence: T1 sequence (Q55075 1-324) with K120R

Sequence of SsoRadA (Saccharolobus solfataricus, UniProt Q55075, K120R) (Q55075 whole entry K120R): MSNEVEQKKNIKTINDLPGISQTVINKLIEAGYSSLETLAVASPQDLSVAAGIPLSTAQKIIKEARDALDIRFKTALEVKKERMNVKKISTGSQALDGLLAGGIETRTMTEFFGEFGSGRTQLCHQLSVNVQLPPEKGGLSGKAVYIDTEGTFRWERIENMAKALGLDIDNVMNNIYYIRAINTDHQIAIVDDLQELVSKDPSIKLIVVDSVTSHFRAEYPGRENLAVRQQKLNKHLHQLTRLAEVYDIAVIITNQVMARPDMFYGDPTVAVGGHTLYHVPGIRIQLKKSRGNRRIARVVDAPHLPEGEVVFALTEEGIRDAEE

Kd [1]: 2.4 ± 0.6 µM | Kd [2]: 59.4 ± 9.4 µM
Molecule: Nc1ncnc2c1ncn2[C@@H]1O[C@H](COP(=O)(O)OP(=O)(O)OP(=O)(O)O)[C@@H](O)[C@H]1O [ATP]

B1: 63-mer ssDNA (ssDNA)
DNA: ACAGCACCAATGAAATCTATTAAGCTCCTCATCGTCCGCAAAAATATCGTCACCTCAAAAGGA
binding result [3]: binds | binding result [4]: binds

B2: 63-mer dsDNA (dsDNA)
DNA 1: B1 DNA
DNA 2: TCCTTTTGAGGTGACGATATTTTTGCGGACGATGAGGAGCTTAATAGATTTCATTGGTGCTGT
binding result [5]: no binding | binding result [6]: no binding | binding result [7]: no binding
